This experiment has as its target Fas/CD95 (human (endogenous in U-2 OS)) (UniProt P25445).

This note sets out measurements from publication PMC5216932.

UniProt P25445, sequence (P25445 26-335): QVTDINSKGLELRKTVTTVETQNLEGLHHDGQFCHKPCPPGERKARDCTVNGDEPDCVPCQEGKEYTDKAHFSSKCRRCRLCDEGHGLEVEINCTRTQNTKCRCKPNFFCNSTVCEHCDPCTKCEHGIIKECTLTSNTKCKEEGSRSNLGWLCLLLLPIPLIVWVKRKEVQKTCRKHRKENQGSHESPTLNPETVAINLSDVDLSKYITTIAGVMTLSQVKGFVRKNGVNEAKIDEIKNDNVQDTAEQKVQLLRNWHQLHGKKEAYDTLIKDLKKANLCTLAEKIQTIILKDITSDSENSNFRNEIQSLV

With Fas ligand (from UniProt P48023 1-281), the U-2 OS cell death with no granzyme-B FRET signal change in co-culture with primary NK cells (3-day cultured in IL-2), with 1.5 μg/ml anti-Fas neutralizing antibody (clone ZB4); control about 65% was 28%.
